How the values were obtained:
[1] = molecular target: Recombinant human ectodomain αIIbβ3, inactive (before activation) (human) (UniProt P08514); test: flow cytometry, 50 nM Alexa488-fibrinogen on inactive αIIbβ3 beads
[2] = molecular target: Recombinant human ectodomain αIIbβ3, inactive (before activation) (human) (UniProt P08514); test: flow cytometry, 50 nM FITC-PAC 1 on inactive αIIbβ3 beads
[3] = molecular target: Recombinant human ectodomain αIIbβ3, activated (high-affinity ligand binding conformation) (human) (UniProt P08514); test: flow cytometry, 50 nM FITC-PAC 1 on activated αIIbβ3 beads
Sequence of Recombinant human ectodomain αIIbβ3, activated (high-affinity ligand binding conformation) (human) (P08514 other isoform, or with tags, fused parts or gaps limits assumed, chain 1 of 2): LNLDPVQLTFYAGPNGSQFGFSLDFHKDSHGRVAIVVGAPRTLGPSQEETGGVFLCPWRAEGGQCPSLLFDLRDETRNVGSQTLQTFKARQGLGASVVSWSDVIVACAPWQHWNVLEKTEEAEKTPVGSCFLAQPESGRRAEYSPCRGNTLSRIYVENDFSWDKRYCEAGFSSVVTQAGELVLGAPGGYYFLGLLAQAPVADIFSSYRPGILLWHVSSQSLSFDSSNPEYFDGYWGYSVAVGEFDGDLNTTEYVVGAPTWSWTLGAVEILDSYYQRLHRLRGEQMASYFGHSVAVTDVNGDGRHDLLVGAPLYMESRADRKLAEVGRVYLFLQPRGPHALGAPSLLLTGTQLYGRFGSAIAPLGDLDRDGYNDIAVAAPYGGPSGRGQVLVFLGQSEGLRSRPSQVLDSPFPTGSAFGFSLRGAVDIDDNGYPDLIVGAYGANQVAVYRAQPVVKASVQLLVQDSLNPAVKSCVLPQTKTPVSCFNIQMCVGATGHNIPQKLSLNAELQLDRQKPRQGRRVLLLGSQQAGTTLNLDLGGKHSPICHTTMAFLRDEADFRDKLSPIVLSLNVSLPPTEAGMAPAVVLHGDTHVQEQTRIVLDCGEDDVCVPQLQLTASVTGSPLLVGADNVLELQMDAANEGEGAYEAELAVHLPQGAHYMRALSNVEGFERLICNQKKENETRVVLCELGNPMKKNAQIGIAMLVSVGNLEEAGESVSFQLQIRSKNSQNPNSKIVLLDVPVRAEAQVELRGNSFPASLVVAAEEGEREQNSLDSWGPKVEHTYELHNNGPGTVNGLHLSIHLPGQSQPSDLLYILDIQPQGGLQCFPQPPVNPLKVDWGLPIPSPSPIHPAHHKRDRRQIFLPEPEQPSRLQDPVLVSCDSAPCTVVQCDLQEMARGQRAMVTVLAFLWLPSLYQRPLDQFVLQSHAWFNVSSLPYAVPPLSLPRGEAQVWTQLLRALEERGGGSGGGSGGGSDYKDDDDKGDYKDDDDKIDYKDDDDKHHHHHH
Sequence of Recombinant human ectodomain αIIbβ3, activated (high-affinity ligand binding conformation) (human) (chain, as listed by the source limits assumed, chain 2 of 2): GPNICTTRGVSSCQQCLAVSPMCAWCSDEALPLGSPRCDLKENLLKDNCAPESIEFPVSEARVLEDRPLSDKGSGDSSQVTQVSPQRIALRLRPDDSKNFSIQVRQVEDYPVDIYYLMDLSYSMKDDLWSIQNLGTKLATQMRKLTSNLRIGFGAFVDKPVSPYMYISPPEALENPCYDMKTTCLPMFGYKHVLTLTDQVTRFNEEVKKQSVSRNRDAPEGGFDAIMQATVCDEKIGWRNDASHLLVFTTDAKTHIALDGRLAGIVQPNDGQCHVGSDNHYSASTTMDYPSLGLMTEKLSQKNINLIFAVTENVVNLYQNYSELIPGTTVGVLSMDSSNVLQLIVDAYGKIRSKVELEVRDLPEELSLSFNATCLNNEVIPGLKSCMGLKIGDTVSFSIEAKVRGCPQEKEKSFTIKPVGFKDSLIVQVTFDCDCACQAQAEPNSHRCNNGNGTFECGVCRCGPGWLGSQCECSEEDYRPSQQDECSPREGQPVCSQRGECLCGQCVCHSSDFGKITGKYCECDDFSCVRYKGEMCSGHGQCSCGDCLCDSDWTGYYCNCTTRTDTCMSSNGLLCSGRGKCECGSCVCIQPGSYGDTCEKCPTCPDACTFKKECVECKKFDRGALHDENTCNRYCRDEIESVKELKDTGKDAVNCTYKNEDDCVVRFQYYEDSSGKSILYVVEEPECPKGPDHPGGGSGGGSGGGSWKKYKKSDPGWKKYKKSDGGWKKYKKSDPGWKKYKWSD

Sequence of Recombinant human ectodomain αIIbβ3, inactive (before activation) (human) (P08514 other isoform, or with tags, fused parts or gaps limits assumed, chain 1 of 2): as the sequence (P08514 other isoform, or with tags, fused parts or gaps limits assumed, chain 1 of 2) above
Sequence of Recombinant human ectodomain αIIbβ3, inactive (before activation) (human) (chain, as listed by the source limits assumed, chain 2 of 2): as the sequence (chain, as listed by the source limits assumed, chain 2 of 2) above

| Substance | Mean Fluorescence Intensity (MFI) [1] | Mean Fluorescence Intensity (MFI) [2] | Mean Fluorescence Intensity (MFI) [3] |
| --- | --- | --- | --- |
| Fibrinogen (from UniProt P02671 20-644; P02675 31-491; P02679 27-437) (ligand) | 52.7 MFI |  |  |
| PAC-1 (antibody specific for the active upright conformation of αIIbβ3) |  | 212 MFI | 942 MFI |
